Measured values from PMC4807051, “Determinants of Cofactor Specificity for the Glucose-6-Phosphate Dehydrogenase from Escherichia coli: Simulation, Kinetics and Evolutionary Studies” (PLoS ONE, 2016).

Assays:
[1] = tested on: T1, NC(=O)c1ccc[n+]([C@@H]2O[C@H](COP(=O)(O)OP(=O)(O)OC[C@H]3O[C@@H](n4cnc5c(N)ncnc54)[C@H](O)[C@@H]3O)[C@@H](O)[C@H]2O)c1; assay: purified protein; assay type: biochemical, Escherichia coli; settings: 25°C, apparent
T1 construct: full length; N-terminal 6xHis tag cut by TEV protease (Gly-His left before Met1); plasmid pET-TEV-EcG6PDH from pETG6PDH

[2] = tested on: T2, NC(=O)c1ccc[n+]([C@@H]2O[C@H](COP(=O)(O)OP(=O)(O)OC[C@H]3O[C@@H](n4cnc5c(N)ncnc54)[C@H](OP(=O)(O)O)[C@@H]3O)[C@@H](O)[C@H]2O)c1; assay: purified protein; assay type: biochemical, Escherichia coli; settings: 25°C, apparent
T2 construct: full length; N-terminal 6xHis tag cut by TEV protease (Gly-His left before Met1); plasmid pET-TEV-EcG6PDH from pETG6PDH

EcG6PDH; glucose-6-phosphate dehydrogenase from Escherichia coli (Escherichia coli K-12; K18T)
Km ([1]; near-saturating G6P (15 mM)): 8.352 ± 0.307 mM | kcat ([1]; near-saturating G6P (15 mM)): 298 ± 4 s⁻¹ | kcat/Km ([1]; near-saturating G6P (15 mM)): 30000 ± 1000 M⁻¹ s⁻¹ | Km ([2]; near-saturating G6P (15 mM)): 0.243 ± 0.0053 mM | kcat ([2]; near-saturating G6P (15 mM)): 282 ± 1 s⁻¹ | kcat/Km ([2]; near-saturating G6P (15 mM)): 1.1e+06 ± 30000 M⁻¹ s⁻¹

EcG6PDH; glucose-6-phosphate dehydrogenase from Escherichia coli (Escherichia coli K-12)
Km ([1]; near-saturating G6P): 5.09 ± 0.4 mM | kcat ([1]; near-saturating G6P): 288 ± 5 s⁻¹ | kcat/Km ([1]; near-saturating G6P): 60000 ± 4000 M⁻¹ s⁻¹ | Km ([2]; near-saturating G6P): 0.0075 ± 0.0008 mM | kcat ([2]; near-saturating G6P): 174 ± 2 s⁻¹ | kcat/Km ([2]; near-saturating G6P): 2.32e+07 ± 2.4e+06 M⁻¹ s⁻¹

EcG6PDH; glucose-6-phosphate dehydrogenase from Escherichia coli (Escherichia coli K-12; R50A)
Km ([1]; near-saturating G6P (50 mM)): 14.662 ± 2.176 mM | kcat ([1]; near-saturating G6P (50 mM)): 171 ± 10 s⁻¹ | kcat/Km ([1]; near-saturating G6P (50 mM)): 10000 ± 1000 M⁻¹ s⁻¹ | Km ([2]; near-saturating G6P (50 mM)): 0.382 ± 0.048 mM | kcat ([2]; near-saturating G6P (50 mM)): 189 ± 5 s⁻¹ | kcat/Km ([2]; near-saturating G6P (50 mM)): 500000 ± 60000 M⁻¹ s⁻¹

EcG6PDH; glucose-6-phosphate dehydrogenase from Escherichia coli (Escherichia coli K-12; K18A/R50A)
Km ([1]; near-saturating G6P (40 mM)): 11.736 ± 0.804 mM | kcat ([1]; near-saturating G6P (40 mM)): 165 ± 4 s⁻¹ | kcat/Km ([1]; near-saturating G6P (40 mM)): 10000 ± 700 M⁻¹ s⁻¹ | Km ([2]; near-saturating G6P (40 mM)): 17.696 ± 1.453 mM | kcat ([2]; near-saturating G6P (40 mM)): 185 ± 7 s⁻¹ | kcat/Km ([2]; near-saturating G6P (40 mM)): 10000 ± 900 M⁻¹ s⁻¹

EcG6PDH; glucose-6-phosphate dehydrogenase from Escherichia coli (Escherichia coli K-12; K18A)
Km ([1]; near-saturating G6P (40 mM)): 2.477 ± 0.26 mM | kcat ([1]; near-saturating G6P (40 mM)): 109 ± 2 s⁻¹ | kcat/Km ([1]; near-saturating G6P (40 mM)): 40000 ± 4000 M⁻¹ s⁻¹ | Km ([2]; near-saturating G6P (40 mM)): 0.099 ± 0.003 mM | kcat ([2]; near-saturating G6P (40 mM)): 143 ± 1 s⁻¹ | kcat/Km ([2]; near-saturating G6P (40 mM)): 1.4e+06 ± 40000 M⁻¹ s⁻¹
